Drawing on patent US20250215412A1 (NOVOZYMES A S, published 2025), this text covers Relative activity of maturated deamidase (% initial rate) and Leakage activity for 31 molecules.

T1: Chryseobacterium sp-62563 deamidase polypeptide (second polypeptide, deamidase domain), wildtype (Chryseobacterium sp-62563)
T1 sequence: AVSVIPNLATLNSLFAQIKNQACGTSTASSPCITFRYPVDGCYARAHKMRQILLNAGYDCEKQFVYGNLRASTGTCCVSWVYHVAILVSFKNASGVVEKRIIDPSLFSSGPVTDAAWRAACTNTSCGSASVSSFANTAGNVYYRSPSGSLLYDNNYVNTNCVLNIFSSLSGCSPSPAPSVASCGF

B1: Chryseobacterium sp-62563 propeptide E67S (protein)
chain: NQDPNLVAKESNETAMKDFGKTVPVGIEKEDGKFKISFMVTAQPYEIKDSKENAAYISMIKTAVENSTPIHVFLKANTNEIAKVDKATDDDIRYFKSVFTKEVKEENRK
B2: Chryseobacterium sp-62563 propeptide E67L (protein)
chain: NQDPNLVAKESNETAMKDFGKTVPVGIEKEDGKFKISFMVTAQPYEIKDSKENAAYISMIKTAVENLTPIHVFLKANTNEIAKVDKATDDDIRYFKSVFTKEVKEENRK
B3: Chryseobacterium sp-62563 propeptide E67H (protein)
chain: NQDPNLVAKESNETAMKDFGKTVPVGIEKEDGKFKISFMVTAQPYEIKDSKENAAYISMIKTAVENHTPIHVFLKANTNEIAKVDKATDDDIRYFKSVFTKEVKEENRK
B4: Chryseobacterium sp-62563 propeptide M39Q (protein)
chain: NQDPNLVAKESNETAMKDFGKTVPVGIEKEDGKFKISFQVTAQPYEIKDSKENAAYISMIKTAVENETPIHVFLKANTNEIAKVDKATDDDIRYFKSVFTKEVKEENRK
B5: Chryseobacterium sp-62563 propeptide M39G (protein)
chain: NQDPNLVAKESNETAMKDFGKTVPVGIEKEDGKFKISFGVTAQPYEIKDSKENAAYISMIKTAVENETPIHVFLKANTNEIAKVDKATDDDIRYFKSVFTKEVKEENRK
B6: Chryseobacterium sp-62563 propeptide F38G (protein)
chain: NQDPNLVAKESNETAMKDFGKTVPVGIEKEDGKFKISGMVTAQPYEIKDSKENAAYISMIKTAVENETPIHVFLKANTNEIAKVDKATDDDIRYFKSVFTKEVKEENRK
B7: Chryseobacterium sp-62563 propeptide M39W (protein)
chain: NQDPNLVAKESNETAMKDFGKTVPVGIEKEDGKFKISFWVTAQPYEIKDSKENAAYISMIKTAVENETPIHVFLKANTNEIAKVDKATDDDIRYFKSVFTKEVKEENRK
B8: Chryseobacterium sp-62563 propeptide M39F (protein)
chain: NQDPNLVAKESNETAMKDFGKTVPVGIEKEDGKFKISFFVTAQPYEIKDSKENAAYISMIKTAVENETPIHVFLKANTNEIAKVDKATDDDIRYFKSVFTKEVKEENRK
B9: Chryseobacterium sp-62563 propeptide E67M (protein)
chain: NQDPNLVAKESNETAMKDFGKTVPVGIEKEDGKFKISFMVTAQPYEIKDSKENAAYISMIKTAVENMTPIHVFLKANTNEIAKVDKATDDDIRYFKSVFTKEVKEENRK
B10: Chryseobacterium sp-62563 propeptide M39S (protein)
chain: NQDPNLVAKESNETAMKDFGKTVPVGIEKEDGKFKISFSVTAQPYEIKDSKENAAYISMIKTAVENETPIHVFLKANTNEIAKVDKATDDDIRYFKSVFTKEVKEENRK
B11: Chryseobacterium sp-62563 propeptide E67D (protein)
chain: NQDPNLVAKESNETAMKDFGKTVPVGIEKEDGKFKISFMVTAQPYEIKDSKENAAYISMIKTAVENDTPIHVFLKANTNEIAKVDKATDDDIRYFKSVFTKEVKEENRK
B12: Chryseobacterium sp-62563 propeptide Y56P (protein)
chain: NQDPNLVAKESNETAMKDFGKTVPVGIEKEDGKFKISFMVTAQPYEIKDSKENAAPISMIKTAVENETPIHVFLKANTNEIAKVDKATDDDIRYFKSVFTKEVKEENRK
B13: Chryseobacterium sp-62563 propeptide E67A (protein)
chain: NQDPNLVAKESNETAMKDFGKTVPVGIEKEDGKFKISFMVTAQPYEIKDSKENAAYISMIKTAVENATPIHVFLKANTNEIAKVDKATDDDIRYFKSVFTKEVKEENRK
B14: Chryseobacterium sp-62563 propeptide Y45L (protein)
chain: NQDPNLVAKESNETAMKDFGKTVPVGIEKEDGKFKISFMVTAQPLEIKDSKENAAYISMIKTAVENETPIHVFLKANTNEIAKVDKATDDDIRYFKSVFTKEVKEENRK
B15: Chryseobacterium sp-62563 propeptide E67G (protein)
chain: NQDPNLVAKESNETAMKDFGKTVPVGIEKEDGKFKISFMVTAQPYEIKDSKENAAYISMIKTAVENGTPIHVFLKANTNEIAKVDKATDDDIRYFKSVFTKEVKEENRK
B16: Chryseobacterium sp-62563 propeptide V23Y (protein)
chain: NQDPNLVAKESNETAMKDFGKTYPVGIEKEDGKFKISFMVTAQPYEIKDSKENAAYISMIKTAVENETPIHVFLKANTNEIAKVDKATDDDIRYFKSVFTKEVKEENRK
B17: Chryseobacterium sp-62563 propeptide K21G (protein)
chain: NQDPNLVAKESNETAMKDFGGTVPVGIEKEDGKFKISFMVTAQPYEIKDSKENAAYISMIKTAVENETPIHVFLKANTNEIAKVDKATDDDIRYFKSVFTKEVKEENRK
B18: Chryseobacterium sp-62563 propeptide E67K (protein)
chain: NQDPNLVAKESNETAMKDFGKTVPVGIEKEDGKFKISFMVTAQPYEIKDSKENAAYISMIKTAVENKTPIHVFLKANTNEIAKVDKATDDDIRYFKSVFTKEVKEENRK
B19: Chryseobacterium sp-62563 propeptide F38D (protein)
chain: NQDPNLVAKESNETAMKDFGKTVPVGIEKEDGKFKISDMVTAQPYEIKDSKENAAYISMIKTAVENETPIHVFLKANTNEIAKVDKATDDDIRYFKSVFTKEVKEENRK
B20: Chryseobacterium sp-62563 propeptide E65P (protein)
chain: NQDPNLVAKESNETAMKDFGKTVPVGIEKEDGKFKISFMVTAQPYEIKDSKENAAYISMIKTAVPNETPIHVFLKANTNEIAKVDKATDDDIRYFKSVFTKEVKEENRK
B21: Chryseobacterium sp-62563 propeptide M39N (protein)
chain: NQDPNLVAKESNETAMKDFGKTVPVGIEKEDGKFKISFNVTAQPYEIKDSKENAAYISMIKTAVENETPIHVFLKANTNEIAKVDKATDDDIRYFKSVFTKEVKEENRK
B22: Chryseobacterium sp-62563 propeptide E67I (protein)
chain: NQDPNLVAKESNETAMKDFGKTVPVGIEKEDGKFKISFMVTAQPYEIKDSKENAAYISMIKTAVENITPIHVFLKANTNEIAKVDKATDDDIRYFKSVFTKEVKEENRK
B23: Chryseobacterium sp-62563 propeptide S58P (protein)
chain: NQDPNLVAKESNETAMKDFGKTVPVGIEKEDGKFKISFMVTAQPYEIKDSKENAAYIPMIKTAVENETPIHVFLKANTNEIAKVDKATDDDIRYFKSVFTKEVKEENRK
B24: Chryseobacterium sp-62563 propeptide V25C (protein)
chain: NQDPNLVAKESNETAMKDFGKTVPCGIEKEDGKFKISFMVTAQPYEIKDSKENAAYISMIKTAVENETPIHVFLKANTNEIAKVDKATDDDIRYFKSVFTKEVKEENRK
B25: Chryseobacterium sp-62563 propeptide E30W (protein)
chain: NQDPNLVAKESNETAMKDFGKTVPVGIEKWDGKFKISFMVTAQPYEIKDSKENAAYISMIKTAVENETPIHVFLKANTNEIAKVDKATDDDIRYFKSVFTKEVKEENRK
B26: Chryseobacterium sp-62563 propeptide E67R (protein)
chain: NQDPNLVAKESNETAMKDFGKTVPVGIEKEDGKFKISFMVTAQPYEIKDSKENAAYISMIKTAVENRTPIHVFLKANTNEIAKVDKATDDDIRYFKSVFTKEVKEENRK
B27: Chryseobacterium sp-62563 propeptide E67C (protein)
chain: NQDPNLVAKESNETAMKDFGKTVPVGIEKEDGKFKISFMVTAQPYEIKDSKENAAYISMIKTAVENCTPIHVFLKANTNEIAKVDKATDDDIRYFKSVFTKEVKEENRK
B28: Chryseobacterium sp-62563 propeptide M39E (protein)
chain: NQDPNLVAKESNETAMKDFGKTVPVGIEKEDGKFKISFEVTAQPYEIKDSKENAAYISMIKTAVENETPIHVFLKANTNEIAKVDKATDDDIRYFKSVFTKEVKEENRK
B29: Chryseobacterium sp-62563 propeptide E67F (protein)
chain: NQDPNLVAKESNETAMKDFGKTVPVGIEKEDGKFKISFMVTAQPYEIKDSKENAAYISMIKTAVENFTPIHVFLKANTNEIAKVDKATDDDIRYFKSVFTKEVKEENRK
B30: Chryseobacterium sp-62563 propeptide M39H (protein)
chain: NQDPNLVAKESNETAMKDFGKTVPVGIEKEDGKFKISFHVTAQPYEIKDSKENAAYISMIKTAVENETPIHVFLKANTNEIAKVDKATDDDIRYFKSVFTKEVKEENRK
B31: Chryseobacterium sp-62563 propeptide M39Y (protein)
chain: NQDPNLVAKESNETAMKDFGKTVPVGIEKEDGKFKISFYVTAQPYEIKDSKENAAYISMIKTAVENETPIHVFLKANTNEIAKVDKATDDDIRYFKSVFTKEVKEENRK

The target of this assay is T1, Chryseobacterium sp-62563 deamidase polypeptide (second polypeptide, deamidase domain), wildtype (Chryseobacterium sp-62563). The assay is described as follows: cell-based or functional assay.
In turn, B1 showed a Relative activity of maturated deamidase (% initial rate) of 42. In turn, B2 returned a Relative activity of maturated deamidase (% initial rate) of 55. For B3, the Relative activity of maturated deamidase (% initial rate) was found to be 78. The same measure, in the same setting: the figure for B4 is over 100; for B5 it is over 100. For B6, the Relative activity of maturated deamidase (% initial rate) was over 100. Consider B7, for which the Relative activity of maturated deamidase (% initial rate) came to 44.

Consider B8, for which the Relative activity of maturated deamidase (% initial rate) was 45. B9 showed a Relative activity of maturated deamidase (% initial rate) of 37.

As to B10, the Relative activity of maturated deamidase (% initial rate) is over 100. With B11, the Relative activity of maturated deamidase (% initial rate) is 69. Regarding B12, the Relative activity of maturated deamidase (% initial rate) stood at 32. In turn, B13 registered a Relative activity of maturated deamidase (% initial rate) of 46. Still for that read-out and setting: for B14 the value was 65; for B15, 54. B16 registered a Leakage activity of 0% and a Relative activity of maturated deamidase (% initial rate) of 56. Molecule B17 returned a Leakage activity of 0% and a Relative activity of maturated deamidase (% initial rate) of 53.

In the case of B18, the Relative activity of maturated deamidase (% initial rate) is over 100. Same read-out and setting: for B19 the value was over 100.

Turning to B20, the Relative activity of maturated deamidase (% initial rate) is 30. In the case of B21, the Relative activity of maturated deamidase (% initial rate) was 39. Take B22: the Relative activity of maturated deamidase (% initial rate) is 31.

B23 had a Relative activity of maturated deamidase (% initial rate) of 42.

The molecule B24 displayed a Relative activity of maturated deamidase (% initial rate) of 96. B25 returned a Relative activity of maturated deamidase (% initial rate) of 27.

Molecule B26 returned a Relative activity of maturated deamidase (% initial rate) of 95. Regarding B27, the Relative activity of maturated deamidase (% initial rate) was determined as 46. Still for that read-out and setting: for B28 the value was 95. Molecule B29 yielded a Relative activity of maturated deamidase (% initial rate) of 46. Turning to B30, the Relative activity of maturated deamidase (% initial rate) was over 100. The same measure, in the same setting: the figure for B31 is over 100.
